Measurements as given in doi:10.1101/2020.01.19.911149 (bioRxiv, 2020).

B1: SmF-GFP (natural protein, S. cerevisiae, UniProt P54999 1-86, looked up)
chain: MSESSDISAMQPVNPKPFLKGLVNHRVGVKLKFNSTEYRGTLVSTDNYFNLQLNEAEEFVAGVSHGTLGEIFIRCNNVLYIRELPN
B2: BsHfq-GFP (natural protein, Bacillus subtilis, UniProt O31796 1-73, looked up)
chain: MKPINIQDQFLNQIRKENTYVTVFLLNGFQLRGQVKGFDNFTVLLESEGKQQLIYKHAISTFAPQKNVQLELE

Target: the molecule itself
Test: SEC-MALS

Protein | stoichiometry N
B1 | 14
B2 | 6
